Reference: patent US20090282582A1, “ENVIRONMENTAL STRESS RESPONSIVE PROMOTER AND METHOD OF TISSUE-SPECIFIC GENE EXPRESSION USING THE SAME” (RIKEN, priority 2006, published 2009)

Tests used:
[1] = system: Arabidopsis thaliana (columbia ecotype) plant body; experiment: full-length cDNA microarray analysis of gene expression levels after environmental stress application; conditions: in vivo
Experimental: In this example, the gene expression levels at the time of application of various types of environmental stresses were analyzed using microarrays. Specifically, the microarrays described in Seki et al., “Monitoring the expression profiles of 7000 Arabidopsis genes under drought, cold, and high-salinity stresses using a full-length cDNA microarray,” Plant J. 31: 279-292, 2002, were used, and analysis was carried out in accordance with the method similar to the method described therein. Various types of environmental stresses were applied to a plant body under the following conditions. Specifically, low-temperature stress application was carried out by introducing a plate containing a plant body into a low-temperature chamber (4° C.). Dehydration stress application was carried out by capturing the plant body with forceps while refraining from damaging the plant body, roughly removing moisture from the plant body on a Kim Towel, placing the plant body on another plate, placing the plate in a clean bench while leaving the lid open, letting it stand for 2 hours, and then closing the lid. Salt stress application was carried out by dispensing a mixture of MS medium (containing 1% sucrose, 0.1% agar, and 1 mM luciferin) with 250 mM NaCl to the roots of the plant bodies (200 μl per plant body) using a Pipetman. ABA stress application was carried out by dispensing a mixture of MS medium (containing 1% sucrose, 0.1% agar, and 1 mM luciferin) with 100 μM ABA to the roots of the plant bodies (200 μl per plant body) using a Pipetman. As a plant body to which environmental stress is to be applied, Arabidopsis thaliana (columbia ecotype), which had been cultivated on a germination medium containing Murashige and Skoog Salt, 3% sucrose, and […] for 3 weeks, was used. Cultivation conditions were determined so as to maintain the temperature in the chamber at 22° C. with a 16-hour light period and an 8-hour dark period. Total RNA was extracted from plant bodies after environmental stress application or from plant bodies to which no environmental stress had been applied using the TRIZOL Reagent (Life Technologies), and mRNA was extracted using the mRNA isolation kit (Militenyi Biotec Auburn). In accordance with the method described in the above article, mRNA samples were reversely transcribed in the presence of Cy3 dUTP or Cy5 dUTP (Amersham Pharmacia). Microarray analysis was carried out using cDNAs obtained via reverse transcription. Data obtained via microarray analysis were analyzed using the Quantarray Version 2.0 (GSI Lumonics).

[2] = system: transgenic Arabidopsis thaliana plant body (luciferase reporter gene); experiment: luciferase assay of promoter::LUC transgenic plants after environmental stress application; assay type: in vivo; conditions: for Tissue in which specific induction of expression is realized / time after stress application at which activity to induce gene expression is exhibited: Dehydration stress; for time after stress application at which activity to induce gene expression is lowered: dehydration stress, stem and leaf tissue; for Tissue allowing specific induction: summary over stress types
Experimental: Specifically, promoter regions were isolated from these genes, transgenic plants in which luciferase reporter genes were to be expressed under the control of such promoters were prepared, and tissue specificity of the promoters was inspected via luciferase assay.
In this example, DNA fragments containing promoter regions of the genes identified in Example 1 were recovered via PCR.
The nucleotide sequences of the amplified DNA fragments were determined in accordance with a conventional technique to confirm that mutagenesis, such as substitution or deletion, was not introduced thereinto. After the absence of mutagenesis was confirmed, the recovered DNA fragments were introduced into the vector for promoter analysis (i.e., a vector prepared by introducing the Gateway recombinant sequence (tradename: Gateway Vector Conversion System, Invitrogen) and the luciferase reporter gene into the pGreen vector (Plant Molecular Biology 42: 819-832, 2000)) using the Gateway recombination system to construct a recombinant vector.
The recombinant vector prepared in (1) above was introduced into a plant via Agrobacterium infection. When a gene is introduced via Agrobacterium infection, a process of infecting a plant with Agrobacterium containing a plasmid comprising the target gene construct is necessary. This process was carried out via vacuum infiltration. Specifically, a plant body of Arabidopsis thaliana that had been grown in soil comprising vermiculite and an equivalent amount of pearlite was soaked in a culture solution of Agrobacterium containing the recombinant vector prepared in (1). The resultant was placed in a desiccator, suctioned with a vacuum pump to 65 to 70 mmHg, and then allowed to stand at room temperature for 5 to 10 minutes. The pot was transferred onto a tray, covered with a wrap, and kept moistened. The wrap was removed on the following day, the plant was allowed to grow in that state, and seeds were then harvested.
Subsequently, seeds were sown on MS agar medium to which antibiotic hygromycin has been added in order to select an individual having the recombinant vector prepared in (1). Arabidopsis thaliana that had been grown in this medium was transferred to a pot and allowed to grow therein. Thus, seeds of transgenic plants to which the recombinant vector prepared in (1) has been introduced were obtained.
The seeds of the transgenic plant lineage prepared in (2) were sowed on MS agar medium. The plant body 10 days after sowing was used for luciferase assay.
At the outset, 1 mM luciferin (containing 0.01% Triton-X) was sprayed over the entire plant body 5 times. After the plant body was allowed to stand in the dark for 5 minutes, luciferase luminescence was assayed using ARGUS (assay after treatment for 0 hours). Subsequently, various types of environmental stresses were applied (see below). Low-temperature stress application was carried out by introducing a plate containing a plant body into a low-temperature chamber (4° C.). Dehydration stress application was carried out by capturing the plant body with forceps while refraining from damaging the plant body, roughly removing moisture from the plant body on a Kim Towel, placing the plant body on another plate, placing the plate in a clean bench while leaving the lid open, letting it stand for 2 hours, and then closing the lid. Salt stress application was carried out by dispensing a mixture of MS medium (containing 1% sucrose, 0.1% agar, and 1 mM luciferin) with 250 mM NaCl to the roots of the plant bodies (200 μl per plant body) using a Pipetman. ABA stress application was carried out by dispensing a mixture of MS medium (containing 1% sucrose, 0.1% agar, and 1 mM luciferin) with 100 μM ABA to the roots of the plant bodies (200 μl per plant body) using a Pipetman.
Luciferase luminescence was assayed 2, 5, and 10 hours after the above various types of environmental stresses had been applied using the ARGUS system (Hamamatsu Photonics). […]

Molecule | Environmental stress type to which the promoter responds [1] | Tissue in which specific induction of expression is realized [2] | time after stress application at which activity to induce gene expression is exhibited [2] | Tissue in which specific induction of expression is realized ([2]; listed as promoter of RAFL06-16-J10) | time after stress application at which activity to induce gene expression is lowered [2] | Tissue allowing specific induction [2] | Tissue in which specific induction of expression is realized ([2]; listed as promoter of RAFL07-08-I12)
Promoter of RAFL06-16-J10: environmental stress responsive promoter DNA, SEQ ID NO: 5, upstream of At2g06050 (OPR3 gene) (nucleic acid, listed as Arabidopsis thaliana) DNA: CCTGGGACTTGGGCTGAGAATAATGAAGTGGCTGGGAAATGATTAGTTAAGGATGGCTTGATGAATTCTCAATATTCTGTTGAGGGAACAAAATATACTAGGAAGGATGCAAGTCCAGTTTGGTCTAAACCATTGTACGAACCAAAAACAATCAATAAAGTAACTCAGGGCTCACAAATGGTCGATAATATTTCTAAAGTTTCAGTTCTAGAGGATGAGCAAAAGGATTTGATGATGGGAGATGTACTAGAGGTACAAGACAAGAGTCTCACTGAAGGGTTGAATTTCAGATATTTTAAATCACGTTTGGAGTAACAAAAAACAAATGTGAGAAGGAGCTCAATTAGCTCCAACTGAATCTAGTGTTATTAGGGATACTTTGGAAACTCCAATTCAATCTTTAAGATGTAGGATTGATGAATTCATGGAAATCGGCAGATCCATCTATGAATTTAGTATGGTGGTGTTTCCTAGGAATTGACAATACAATTTTACTTGGTGCAAAGTGTCTTCGGAGGTGTCCCTTTCTTTTTCACTCGGAATTGGAAGTTTTAATATTGGCAATAAAAAATATCCTTTCAAGAAGGATAAAGTGTCAGGCATTTGAAACAGATAATTATTCAGAGTAAGTTTTGATGGTACAGTCCCCTGAAGAATGACTCGCTTTCTCTAATTTTTTAGAAGATCTTGAATTGCTATGTGTCTCCTTTTCTTGCTTTCTTCTATTTCATGTTTATGTAATACTAAGGCAAACTATTTAGCACAATATTCTAAACTTTTATTTTCTGAAGTTATTTTTTAAACCCTTTCCCTCCTAATTGGACAACCAATCATGGAATTAGTTTTTACGTAATGTTTTAAACTCACTATTTCACCTTTATTCTGACCTGTTAATGGAAGACAACTATGACTTTATACATTGAAATGTTGTCAACCTGTTATATATTAATGTTAACATAGCTAATGACCTATCAATGTACGTAAAGCGAATGTCAATCATATTCGTATCCGTTAATTTCATTTAGGAAATCAGGCTCATTGCCAATCCACTAAGAAACATCTCTGATAGATCCAAATAATAAAAATAATATAATATGAAGCAAAATAGAACGAAATATCTCACGCGGACCAAACTTTGAACTTTATTATAAAACAAATCAGCACGTGAAAGTAATGGTCGGTTCGGTCCAAGATGCCAAGAACTCCTCCGGTCCATCCATCAACCTAACCTTTTTTGGATATAAAATTTAGCAAATTCCATTTCCACGACCACACAACAACAACACATCCACTCGAATTTTCTATTTCCGAATAACAAAACCGGTAAACTCATCACAAACTTAAGTTACTTTGTAGTTTGTGTTTTGTCCTTTTATGTAATGAAGAAGATCCAACTAACTACTACTCAATATTTTTGTATTGACCGTTGATTTCTCAGATCTGACTTTTACTTCTCCTTCTTCCAGATCGGCGGAGAC | Dehydration and salt | Stem and leaf tissue | about 2 hours | stem and leaf tissue | about 10 hours | Stem and leaf tissue | –
Promoter of RAFL07-08-I12: environmental stress responsive promoter DNA, SEQ ID NO: 6, upstream of At2g26530 (homolog of calmodulin-binding protein) (nucleic acid, listed as Arabidopsis thaliana) DNA: CGGGTTTTATTTTGGAATTGGGTTATATGGTGGATGTATTTGAATCAATATTTATAAAAATTTAACAATTATCTCATGGATTCGTGGTATAACGTTACCTAATAACAATTATAAACTGTAAAATAAAAATATTTTATAAAAATAAAATTTGCAAGTTTTAATATATATTACTTTTAAAAAATAAATCGTCCCGCGGTATACCGCGGGTTAAAATCTAGTCTATGTTTATTATAAAAGAATACAATGTATTAATGTATAAATTATCTTATGCATGAGCACGATGATCATCTAGTAGTATACATCTTACCCGTCGACAAAAACAAAATGTTCCTTATCCAGTATCTAGATGGATCGTGTGAACTCAATTCTACGTAGAACACAAAAGTCCTCTCGTTTGGTCACTGAATTAATTTGAACGATATTATTTATTAGGACCACCGGTTAAATTGGCCTCGTGGTCTAAATATGCCTTCGAATGGTCCAACAACCATGTGGTCAATGCCGACTATGAAAATGACTGAAAATTCAAAACATGTAAGTGGGTTACCACCACTTATCATTATGTTCCAAATCGTTTGCATTAAACAACTTTATTTCGACACATGCGGTCTGAAAAGGCGGCCAATTAATTTACGTTAATCATCGTTTACTATTATTATCTTCGGAATATTTCCAACACAATCAATCTAGTTGGTTCCAATTCTCATCACATATTTTATTTTATAGTTTAAAGTCTTTCAATTCAGTAGTCTAACTGTATAACATATGACTTCGAACAGATTGATATAGACCACTCAATCTAATAATATCGTTTTAGCTACGAAGAGTATACAAAAAAAGCTAGTTGGATAGTTTAAAAATTAAATGCTAGAAGAATGTTGGATATATCAAACAATAAAATTAATATTTAGAGAGAAAATATCGTAATAGAGTTTTTTCTATAAATAAATTTTTGAGTTAAAAAATATTATTAGCCTGACCAAACTCTTTTTATTTCTTTAAACTATGACAGTAAGATCTAAATTTTAATAAACCAATGTTTATTTAATATTTTCAGAAATGGGCTAAAAATGACTAGTTGTTGTATGTGTTTCCTTTGAATAAAAGCTCAACAAACAAAAACTAGAAGTCATTATGTAAAAAAACTAATGACATAGTATTAGGTATTTTTTGCAAATTATTCACACATGTTGCCAAAAGTTGTTTTTTATATTATATGTTTGGTCAGCGAAAACGGTTTAAAGCACTCTCTCTTTCCTCTCGCCTTCCTTTGATGATCCTTTTTAGTTCCCTTCTTCTCATTGCTCTTGAGACCATCTCCGAACTCAAAGGAAACTAGAAACA | Dehydration and salt | Stem and leaf tissue | about 2 hours | – | about 5 hours | Stem and leaf tissue | stem and leaf tissue
